From publication PMC4499152 (Nucleic Acids Research, 2015) come the findings set out here.

Common to all, as to experiment: pull-down
Experiment [1] concerns the target hnRNP-A1 N-terminal RRMs fragment (a.a. 1-188) (UniProt P09651-2 1-188).
In experiment [2] the target is GST fusion with DNA-PKcs fragment H2 (a.a. 3747-4097) (human, UniProt P78527 3747-4097).
In experiment [3] the target is GST fusion with the C-terminal DNA-PKcs fragment H (a.a. 3747-4128) (human, UniProt P78527 3747-4128).

Chain of GST fusion with DNA-PKcs fragment H2 (a.a. 3747-4097) (P78527 3747-4097): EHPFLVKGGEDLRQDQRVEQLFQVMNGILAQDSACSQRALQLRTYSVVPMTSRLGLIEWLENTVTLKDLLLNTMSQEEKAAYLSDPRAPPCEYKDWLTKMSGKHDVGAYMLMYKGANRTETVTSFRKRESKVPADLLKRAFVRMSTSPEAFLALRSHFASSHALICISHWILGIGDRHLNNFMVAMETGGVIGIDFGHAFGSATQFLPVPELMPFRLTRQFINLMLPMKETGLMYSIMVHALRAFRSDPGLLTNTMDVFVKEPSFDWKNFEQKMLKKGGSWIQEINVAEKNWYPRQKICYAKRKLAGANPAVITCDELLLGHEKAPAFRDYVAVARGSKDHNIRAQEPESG

B1: GST fusion with DNA-PKcs fragment H3 (a.a. 4036-4128) (domain or fragment, human, UniProt P78527 4036-4128, looked up)
chain: KNWYPRQKICYAKRKLAGANPAVITCDELLLGHEKAPAFRDYVAVARGSKDHNIRAQEPESGLSEETQVKCLMDQATDPNILGRTWEGWEPWM
Regarding B1, in experiment [1], the binding result is on record as “binds”.

B2: His-tagged full-length hnRNP-A1 (recombinant, wild type) (natural protein, UniProt P09651-2 1-320, looked up)
chain: MSKSESPKEPEQLRKLFIGGLSFETTDESLRSHFEQWGTLTDCVVMRDPNTKRSRGFGFVTYATVEEVDAAMNARPHKVDGRVVEPKRAVSREDSQRPGAHLTVKKIFVGGIKEDTEEHHLRDYFEQYGKIEVIEIMTDRGSGKKRGFAFVTFDDHDSVDKIVIQKYHTVNGHNCEVRKALSKQEMASASSSQRGRSGSGNFGGGRGGGFGGNDNFGRGGNFSGRGGFGGSRGGGGYGGSGDGYNGFGNDGSNFGGGGSYNDFGNYNNQSSNFGPMKGGNFGGRSSGPYGGGGQYFAKPRNQGGYGGSSSSSSYGSGRRF
Consider B2, for which the binding result in experiment [2] and in experiment [3] was “binds” each time.
